Results reported in paper PMC9485057.

Legend:
[1] = target: FbxwD-FLAG (endogenous locus tagged) (D. discoideum); experiment: co-IP; FbxwD-FLAG precipitated with anti-FLAG M2 magnetic beads from S21 lysates of phyA+ or phyA– vegetative or slug cells, 4 °C 1 h; Skp1 detected by Western blot (pAb UOK77), densitometry
[2] = target: JcdI-FLAG (endogenous locus tagged) (D. discoideum) (UniProt Q55CL5); experiment: co-IP; FLAG-JcdI or JcdI-FLAG precipitated with anti-FLAG M2 beads from NP-40 lysates of vegetative or slug cells, 4 °C 1 h, washed in 50 mM Tris-HCl pH 8.0, 150 mM NaCl, 0.2% NP-40; Skp1 detected by Western blot
Sequence of UniProt Q55CL5 (Q55CL5 entry or part of it): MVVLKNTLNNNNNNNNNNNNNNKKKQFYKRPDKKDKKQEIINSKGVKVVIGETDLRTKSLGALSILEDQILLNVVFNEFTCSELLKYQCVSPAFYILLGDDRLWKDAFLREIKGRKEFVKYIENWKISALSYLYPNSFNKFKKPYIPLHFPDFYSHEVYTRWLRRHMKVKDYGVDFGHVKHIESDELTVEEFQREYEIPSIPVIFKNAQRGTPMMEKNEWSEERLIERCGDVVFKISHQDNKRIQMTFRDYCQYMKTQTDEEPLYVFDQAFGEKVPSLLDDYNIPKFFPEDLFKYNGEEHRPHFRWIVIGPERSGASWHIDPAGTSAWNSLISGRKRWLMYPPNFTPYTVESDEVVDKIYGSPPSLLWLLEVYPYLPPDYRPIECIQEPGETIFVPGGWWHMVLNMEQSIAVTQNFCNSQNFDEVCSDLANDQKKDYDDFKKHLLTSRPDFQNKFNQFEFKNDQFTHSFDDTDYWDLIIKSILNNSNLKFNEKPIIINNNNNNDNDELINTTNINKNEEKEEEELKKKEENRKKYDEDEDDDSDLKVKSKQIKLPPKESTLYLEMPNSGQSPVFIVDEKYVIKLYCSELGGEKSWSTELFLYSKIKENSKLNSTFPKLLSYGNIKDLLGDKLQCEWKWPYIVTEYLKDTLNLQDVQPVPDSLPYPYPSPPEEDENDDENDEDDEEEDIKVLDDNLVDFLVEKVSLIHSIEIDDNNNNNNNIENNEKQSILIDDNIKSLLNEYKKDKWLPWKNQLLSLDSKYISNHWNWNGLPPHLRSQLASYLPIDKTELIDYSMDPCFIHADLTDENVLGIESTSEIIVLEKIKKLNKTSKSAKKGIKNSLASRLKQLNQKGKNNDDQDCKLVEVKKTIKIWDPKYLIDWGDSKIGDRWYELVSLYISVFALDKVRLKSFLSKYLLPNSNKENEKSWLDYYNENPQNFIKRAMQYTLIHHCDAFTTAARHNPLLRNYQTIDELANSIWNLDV

fold more Skp1 co-IPed with FbxwD-FLAG, phyA+ versus phyA– slug cells [1]: 4 fold
fold more Skp1 co-IPed with FbxwD-FLAG, phyA+ versus phyA– vegetative cells [1]: 2.5 fold
fold more Skp1 (Skp1:JcdI ratio) co-IPed with JcdI-FLAG, gnt1+ versus gnt1– vegetative cells [2]: 2 fold
fold preferential interaction with JcdI-FLAG, gnt1+ versus gnt1– slug cells [2]: 2 fold
Substance: Skp1 (endogenous, from phyA+ / gnt1+ cells; hydroxylated and glycosylated) (from UniProt P52285 1-162) (natural protein)
